Target: HIV-1 reverse transcriptase (HIV-RT) (HIV-1, UniProt P04585;P04585 P04585:588-1147,P04585:588-1027)
Experiment: footprint; chemical modification protection and modification interference; 200 mM KOAc, 50 mM Tris-HCl pH 7.7, 37 C
Conditions: pseudoknot
Procedure: Affinity assays with labeled RNA and HIV-RT. Model RNAs for refinement of the 5' and 3' boundaries and for determination of the effect of substitutions were labeled during transcription with T7 RNA polymerase as described in Tuerk et al. (1990) except that a-32P-ATP was used, in reactions of 0.5 mM C,G, and UTP with 0.05 mM ATP. Synthetic oligonucleotides and phosphatased transcripts (as in Tuerk et al., 1990) were kinased as described in Gauss et al. (1987). All RNA-protein binding reactions were done in a "binding buffer" of 200 mM KOAc, 50 mM Tris-HCl pH 7.7, 10 mM dithiothreitol with exceptions noted for chemical protection experiments below. RNA and protein dilutions were mixed and stored on ice for 30 minutes then transferred to 37° C. for 5 minutes. […] Each reaction was suctioned through a pre-wet (with binding buffer) nitrocellulose filter and rinsed with 3 mls of binding buffer after which it was dried and counted for assays or subjected to elution and assayed for chemical modification. In comparisons of binding affinity, results were plotted and the protein concentration at which half-maximal binding occurred (the approximate Kd in conditions of protein excess) was determined graphically.
Selection of modified RNAs by HIV-RT. […] The extent of modification interference by ENU was determined by densitometric scanning of films using an LKB laser densitomer.

B1: lengthened ligand B RNA (ssRNA)
RNA: GGUCCGAAGUGCAACGGGAAAAUGCACUAUGAAAGAAUUUUAUAUCUCUAUUGAAAC
- binding result: binds
